{"source": "patent US20230355720A1", "about": "“PHARMACEUTICAL COMPOSITION FOR PREVENTING OR TREATING BONE DISEASES, COMPRISING TRIPLE AGONIST OR CONJUGATE THEREOF HAVING ACTIVITY WITH RESPECT TO ALL OF GLUCAGON, GLP-1 AND GLP RECEPTORS” (HANMI PHARM. CO., LTD., priority 2020, published 2023)", "key": {"MC3T3-E1 osteoblasts [1]": {"tested_on": "MC3T3-E1 osteoblasts", "test": "Cell viability of MC3T3-E1 osteoblasts under fetal bovine serum deficiency", "type": "cell-based", "details": "co-treatment with conjugate (2 μM) and GIP inhibitor 0.31, 1.25, 5, 20 μM; dose-dependent manner (FIG. 5)", "method": "MC3T3-E1 osteoblasts were dispensed into 96-well plates at 10,000 cells/well and incubated for 24 hours using a medium containing 10% fetal bovine serum. The medium in a normal group was replaced with a medium containing 10% bovine fetal serum, and the medium in each of the test groups was replaced with a medium containing no bovine fetal serum. […] The medium in each of the normal group and test groups was replaced, and after 48 hours, the cells were further incubated. Thereafter, the cell viability was analyzed using a collagen assay kit (Biocolor) according to the manufacturers instructions. The GIP inhibitor is GIP 3-30, in which the N-terminus region was absent in native GIP."}, "MC3T3-E1 osteoblasts [2]": {"tested_on": "MC3T3-E1 osteoblasts", "test": "ColA1 protein in medium of MC3T3-E1 osteoblasts (collagen assay kit)", "type": "cell-based", "details": "co-treatment with GIP inhibitor (10 μM or 100 μM), 7 days (FIG. 4)", "method": "MC3T3-E1 osteoblasts were dispensed into 12-well plates at 100,000 cells/well and incubated for 24 hours using a medium containing 10% fetal bovine serum. […] The long-acting GIP used in the present invention was prepared by the same method as in the long-acting conjugate of the triple agonist illustrated in Example 2, wherein the long-acting GIP is in a form in which immunoglobulin Fc was linked to GIP analog via PEG, and the GIP inhibitor is GIP 3-30, in which the N-terminus was absent in native GIP.\nAfter 7 days, the incubated medium was collected, and ColA1 in the medium was quantified using a collagen assay kit (Biocolor) according to the manufacturer's instructions.\nStatistical analysis was performed by one-way ANOVA to compare between the control group and the test groups."}, "human GIP receptor": {"target": "T1, human GIP receptor (human, UniProt P48546 22-466)", "T1 sequence (looked up)": "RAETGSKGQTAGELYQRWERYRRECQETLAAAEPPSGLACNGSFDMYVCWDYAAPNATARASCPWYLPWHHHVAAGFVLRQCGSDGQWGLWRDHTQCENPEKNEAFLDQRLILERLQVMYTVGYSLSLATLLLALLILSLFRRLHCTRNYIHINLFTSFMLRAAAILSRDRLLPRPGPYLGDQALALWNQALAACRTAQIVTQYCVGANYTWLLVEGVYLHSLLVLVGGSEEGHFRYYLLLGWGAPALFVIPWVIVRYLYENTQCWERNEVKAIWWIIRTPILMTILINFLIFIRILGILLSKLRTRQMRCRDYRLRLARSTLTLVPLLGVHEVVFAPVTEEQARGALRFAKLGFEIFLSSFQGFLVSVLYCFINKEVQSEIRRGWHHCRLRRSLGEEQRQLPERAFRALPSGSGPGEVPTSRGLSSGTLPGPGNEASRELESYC", "test": "cell-based or functional assay"}, "human GCG receptor": {"target": "human GCG receptor (human, UniProt P47871 26-477)", "sequence (P47871 26-477)": "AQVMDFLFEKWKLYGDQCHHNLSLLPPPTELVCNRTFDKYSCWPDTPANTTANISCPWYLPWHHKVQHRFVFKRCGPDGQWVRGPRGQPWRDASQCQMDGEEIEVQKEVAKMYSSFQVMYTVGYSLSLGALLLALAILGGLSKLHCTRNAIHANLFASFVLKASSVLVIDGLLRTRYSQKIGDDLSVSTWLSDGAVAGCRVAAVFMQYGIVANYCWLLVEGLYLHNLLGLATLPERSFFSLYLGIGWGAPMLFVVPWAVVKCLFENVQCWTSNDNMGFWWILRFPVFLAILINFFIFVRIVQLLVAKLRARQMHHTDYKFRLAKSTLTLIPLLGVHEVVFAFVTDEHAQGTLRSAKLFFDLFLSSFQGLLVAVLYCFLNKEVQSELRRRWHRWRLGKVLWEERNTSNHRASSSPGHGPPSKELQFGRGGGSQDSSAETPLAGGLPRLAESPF", "test": "cell-based or functional assay"}, "human GLP-1 receptor": {"target": "human GLP-1 receptor (human, UniProt P43220 24-463)", "test": "cell-based or functional assay"}}, "note": "Bridge positions count the residues as written; N and C are the ends. Square brackets hold non-standard residues; d marks the D form. Ends that are not written are not given here. Aib = CC(C)(N)C(=O)O", "data": [{"molecule": "GIP 3-30 (EGTFISDYSIAMDKIHQQDFVNWLLAQK; Gastric inhibitory polypeptide; UniProt P09681 54-81, looked up, fragment) [GIP inhibitor, GIP 3-30, in which the N-terminus was absent in native GIP, reference compound]", "values": [{"measurement": "cell viability increased by the long-acting conjugate of SEQ ID NO: 42", "setting": "MC3T3-E1 osteoblasts [1]", "value": "reduced"}, {"measurement": "effect of the long-acting conjugate of SEQ ID NO: 42 on the expression of ColA1 protein", "setting": "MC3T3-E1 osteoblasts [2]", "value": "reduced"}]}, {"molecule": "H[Aib]QGTFTSDYSKYLDEKACKEFVQWLLAQ (bridge 16-20)", "note": "[triple agonist of SEQ ID NO: 31]", "values": [{"measurement": "In vitro activity (%) compared with native peptide, vs GIP", "setting": "human GIP receptor", "value": 2.4, "unit": "%"}, {"measurement": "In vitro activity (%) compared with native peptide, vs Glucagon", "setting": "human GCG receptor", "value": 2.2, "unit": "%"}, {"measurement": "In vitro activity (%) compared with native peptide, vs GLP-1", "setting": "human GLP-1 receptor", "value": 135, "unit": "%"}]}, {"molecule": "H[Aib]QGTFTSDYSIAMDEIHQKDFVNWLLAQKC (bridge 16-20; not fully specified)", "note": "[triple agonist of SEQ ID NO: 33]", "values": [{"measurement": "In vitro activity (%) compared with native peptide, vs GIP", "setting": "human GIP receptor", "value": 10.4, "unit": "%"}, {"measurement": "In vitro activity (%) compared with native peptide, vs Glucagon", "setting": "human GCG receptor", "value": "< 0.1", "unit": "%"}, {"measurement": "In vitro activity (%) compared with native peptide, vs GLP-1", "setting": "human GLP-1 receptor", "value": 24.5, "unit": "%"}]}, {"molecule": "H[Aib]QGTFTSDYSKYLDEKACKDFVQWLLDGGPSSGAPPPS (bridge 16-20; not fully specified)", "note": "[triple agonist of SEQ ID NO: 32]", "values": [{"measurement": "In vitro activity (%) compared with native peptide, vs GIP", "setting": "human GIP receptor", "value": 8.8, "unit": "%"}, {"measurement": "In vitro activity (%) compared with native peptide, vs Glucagon", "setting": "human GCG receptor", "value": 1.7, "unit": "%"}, {"measurement": "In vitro activity (%) compared with native peptide, vs GLP-1", "setting": "human GLP-1 receptor", "value": 151, "unit": "%"}]}]}
